Experimental data as given in PMC3206438, “Identification and characterization of PhbF: A DNA binding protein with regulatory role in the PHB metabolism of Herbaspirillum seropedicae SmR1” (BMC Microbiology, 2011).

B1: His-PhbF (H. seropedicae SmR1 PhbF protein fused to an N-terminal six-histidine tag) (natural protein, Herbaspirillum seropedicae SmR1, UniProt D8J0C9 1-188, looked up)
chain: MTTAKNSADRLIKKYPNRRLYDTQTSSYITLTDVKQLVLDNEEFTVVDAKSGDDLTRSILLQIILEEESHGVPMFSSGALSQIIRYYGHAMQGMMGNYLEKNIQTFIDIQNKLAENSKGFYEGKPFSPEMWTQFMNVQGPMMQGMMSNYIEQSKNLFIQMQEQMQSQTKNMFGTFPFGNPGAGPDQKK
notes: the phbF gene was amplified from the genome and cloned into pET-28a (pKADO3); The pET-28a vector residues between the His tag and the protein are not described; also called His-tag PhbF protein; source: E. coli BL21(DE3) carrying pKADO3, purified (Hi-Trap Chelating Ni2+ column); not shown: His6, N-terminal, kept

Tests used:
[1] = test system: His-PhbF (Herbaspirillum seropedicae SmR1); test: EMSA; conditions: apparent; 100 ng calf thymus DNA; tetramer concentration; EMSA: 10 mM Tris-HCl pH 7.5, 80 mM NaCl, 1 mM EDTA, 10 mM beta-mercaptoethanol, 5% glycerol, 20 nM DNA, 100 ng calf thymus DNA in 10 uL, 30 C 5 min; footprint: …
[2] = target: the molecule itself; test: SEC; gel filtration chromatography of purified His-PhbF; apparent molecular weight 104.3 kDa; conditions not told in the main text (Additional file 1, Figure S2)

Row | Molecule | Kd [1] [nM] | stoichiometry N [2]
1 | phaP1 promoter | 150 | 
2 | phbF promoter (EMSA) | 450 | 
3 | B1 |  | 4
